Read-outs that look alike come from different tables or passages of the source.

For data set [1], the target named is hAPP with the FAD mutations Swedish (K670N/M671L) and Indiana (V717F), transgenic in J20 mice (human) (UniProt P05067). The data set is described as follows: native gel or EMSA; Blue Native PAGE of membranes of homogenised mouse cortices (E14 to 12 months; WT, non-transgenic and J20 mice; KO cortices as antibody controls), n-dodecyl-β-D-maltoside; Western blot with Y188, 57 or D2-II. (A gel shift assay detects complexes by their altered migration in electrophoresis.)

The target in data set [2] is APLP1 F1 (APLP1 with a C-terminal FKBP tag and HA tag). The data set is described as follows: native gel or EMSA; Blue Native PAGE (4–15% Tris–HCl gel, overnight, 4 °C) of membranes of transiently transfected N2a cells solubilised with n-dodecyl-β-D-maltoside; no dimerizer (untreated or ethanol vehicle); Western blot; dimer as percent of total signal.
For data set [3], the target named is endogenous human APP (human (endogenous in middle frontal gyrus)). Put plainly: native gel or EMSA; Blue Native PAGE, semi-denaturing conditions, of human middle frontal gyrus (controls n = 5, AD n = 6); Western blot with Y188.
Data set [4] has as its target APP F1 (APP695 with a C-terminal FKBP tag and HA tag). Put plainly: native gel or EMSA; Blue Native PAGE (4–15% Tris–HCl gel, overnight, 4 °C) of membranes of transiently transfected N2a cells solubilised with n-dodecyl-β-D-maltoside; no dimerizer (untreated or ethanol vehicle); Western blot; dimer as percent of total signal.
Data set [5] can be described thus: native gel or EMSA; as a1, but the cells were treated with 100 nM of the rapamycin analogue AP20187 (dimerizer) overnight, added 4 h post-transfection.
Data set [6] can be described thus: native gel or EMSA; Blue Native PAGE (4–15% Tris–HCl gel, overnight, 4 °C) of membranes of transiently transfected N2a cells solubilised with n-dodecyl-β-D-maltoside; no dimerizer (untreated or ethanol vehicle); Western blot; dimer as percent of total signal.
Data set [7] deals with APLP2 F1 (APLP2-763 with a C-terminal FKBP tag and HA tag). Described as above.
The target of data set [8] is endogenous mouse APP (mouse (endogenous in C57BL/6 cortex and mouse cells)). Put plainly: native gel or EMSA; Blue Native PAGE of membranes of homogenised mouse cortices (E14 to 12 months; WT, non-transgenic and J20 mice; KO cortices as antibody controls), n-dodecyl-β-D-maltoside; Western blot with Y188, 57 or D2-II.
For data set [9] the target is unchanged. Described as above. The source holds these as a separate data set.
The target of data set [10] is endogenous mouse APLP1 (mouse (endogenous in C57BL/6 cortex and mouse cells)). Described as above.
Data set [11] deals with T1, endogenous mouse APLP2 (mouse (endogenous in C57BL/6 cortex and mouse cells)), Q06335.
T1 chain: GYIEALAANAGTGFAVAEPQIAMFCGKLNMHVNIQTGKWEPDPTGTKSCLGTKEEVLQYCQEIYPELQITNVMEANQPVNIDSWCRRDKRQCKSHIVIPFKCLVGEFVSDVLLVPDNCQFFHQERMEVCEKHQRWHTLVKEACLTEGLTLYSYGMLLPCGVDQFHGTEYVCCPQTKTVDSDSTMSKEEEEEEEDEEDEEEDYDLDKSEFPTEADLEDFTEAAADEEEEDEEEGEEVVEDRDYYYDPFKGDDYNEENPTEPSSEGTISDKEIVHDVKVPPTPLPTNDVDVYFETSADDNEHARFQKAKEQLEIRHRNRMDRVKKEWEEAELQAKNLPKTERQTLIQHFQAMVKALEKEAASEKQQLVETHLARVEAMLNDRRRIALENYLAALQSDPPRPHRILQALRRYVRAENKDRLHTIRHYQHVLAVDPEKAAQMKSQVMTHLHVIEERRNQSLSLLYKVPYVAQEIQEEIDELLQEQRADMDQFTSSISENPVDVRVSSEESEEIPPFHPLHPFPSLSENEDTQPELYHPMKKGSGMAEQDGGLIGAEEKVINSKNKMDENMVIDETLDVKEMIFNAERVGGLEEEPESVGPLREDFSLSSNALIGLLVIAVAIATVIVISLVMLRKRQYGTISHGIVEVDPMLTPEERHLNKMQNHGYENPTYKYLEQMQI
The description is as above. The conditions noted are these: remark: other sources report otherwise.

Take “hAPP with the FAD mutations Swedish (K670N/M671L) and Indiana (V717F), transgenic in J20 mice (from UniProt P05067 18-770) (natural protein)”: in data set [1], the percent dimer (4 months) stood at 58.1% and the percent dimer (12 months) turned out to be 58%.
As for “APLP1 F1 (APLP1 with a C-terminal FKBP tag and HA tag)”, the percent dimer in [2] amounted to 31.8%.
Consider endogenous human APP (natural protein), for which, in data set [3], the percent dimer (non-demented controls) amounted to 21.8%.
“APP F1 (APP695 with a C-terminal FKBP tag and HA tag)” gave a percent dimer in [4] of 22.2%.
For the molecule “APLP2 F1 (APLP2-763 with a C-terminal FKBP tag and HA tag)”, in data set [5], the “percent in the HMW complex with AP20187” value is given as > 60% of APLP2 in the HMW complex. The “percent in the HMW complex” value in data set [6] is < 20%, in the high molecular weight (HMW) complex. Also, the percent dimer in [7] is 16.2%.
In the case of endogenous mouse APP (natural protein), in data set [8], the percent dimer came out at 48.9%, the percent dimer (1 to 12 months old mice) is 49%, the percent dimer (4 months) worked out at 61.3% and the percent dimer (12 months) stood at 54.8%. In addition, the percent dimer in [9] worked out at 45%.
On to “endogenous mouse APLP1 (natural protein)”, for which the percent dimer in [10] is 45.6%.

B1: endogenous mouse APLP2, Q06335 32-707 (natural protein)
chain: GYIEALAANAGTGFAVAEPQIAMFCGKLNMHVNIQTGKWEPDPTGTKSCLGTKEEVLQYCQEIYPELQITNVMEANQPVNIDSWCRRDKRQCKSHIVIPFKCLVGEFVSDVLLVPDNCQFFHQERMEVCEKHQRWHTLVKEACLTEGLTLYSYGMLLPCGVDQFHGTEYVCCPQTKTVDSDSTMSKEEEEEEEDEEDEEEDYDLDKSEFPTEADLEDFTEAAADEEEEDEEEGEEVVEDRDYYYDPFKGDDYNEENPTEPSSEGTISDKEIVHDVKVPPTPLPTNDVDVYFETSADDNEHARFQKAKEQLEIRHRNRMDRVKKEWEEAELQAKNLPKTERQTLIQHFQAMVKALEKEAASEKQQLVETHLARVEAMLNDRRRIALENYLAALQSDPPRPHRILQALRRYVRAENKDRLHTIRHYQHVLAVDPEKAAQMKSQVMTHLHVIEERRNQSLSLLYKVPYVAQEIQEEIDELLQEQRADMDQFTSSISENPVDVRVSSEESEEIPPFHPLHPFPSLSENEDTQPELYHPMKKGSGMAEQDGGLIGAEEKVINSKNKMDENMVIDETLDVKEMIFNAERVGGLEEEPESVGPLREDFSLSSNALIGLLVIAVAIATVIVISLVMLRKRQYGTISHGIVEVDPMLTPEERHLNKMQNHGYENPTYKYLEQMQI
B1: the percent dimer in [11] was determined as 26.1%.

(Values after article PMC10398996.)
